Results reported in the supplement of paper PMC10567573.

B1: LOC100129726 (parent)
chain: AKAADSPTRNDLESGLGHFSLRVH

Variants of: B1
Experiment: protein stability index of a GFP-peptide fusion (GPS, HEK-293T) (PSI 1-6); higher = more stable
Conditions: c terminus: a fixed tail appended
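Also: lentivirally expressed fusions sorted by FACS into six bins by GFP to DsRed ratio, PSI derived from sequencing read proportions per bin multiplied by bin number.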

Compared with AKAADSPTRNDLESGLGHFTLRVH, AKAADSPTRNDLESGLGHFRLRVH is lower in protein stability index: 3.1 for the first, 2.19 for the second.

Compared with AKAADSPTRNDLESGLGHFDLRVH, AKAADSPTRNDLESGLGHFPLRVH is higher in protein stability index: 3.46 for the first, 3.81 for the second.

First: AKAADSPTRNDLESGLGHFILRVH
Second: AKAADSPTRNDLESGLGHFALRVH
The protein stability index of the first is lower: 1.48 for the first, 3.29 for the second.

Going from AKAADSPTRNDLESGLGHFMLRVH to AKAADSPTRNDLESGLGHFVLRVH, the protein stability index falls from 2.87 to 2.21.

Going from AKAADSPTRNDLESGLGHFLLRVH to AKAADSPTRNDLESGLGHFQLRVH, the protein stability index rises from 2.09 to 3.17.

Going from AKAADSPTRNDLESGLGHFELRVH to AKAADSPTRNDLESGLGHFFLRVH, the protein stability index falls from 3.72 to 2.05.

First: AKAADSPTRNDLESGLGHFYLRVH
Second: AKAADSPTRNDLESGLGHFGLRVH
The protein stability index of the first is lower: 1.58 for the first, 3.11 for the second.

Compared with AKAADSPTRNDLESGLGHFHLRVH, AKAADSPTRNDLESGLGHFNLRVH is higher in protein stability index: 3.35 for the first, 3.45 for the second.

Going from AKAADSPTRNDLESGLGHFCLRVH to AKAADSPTRNDLESGLGHFWLRVH, the protein stability index falls from 2.45 to 2.25.

Compared with AKAADSPTRNDLESGLGHFKLRVH, AKAADSPTRNDLESGLGHFSWRVH is higher in protein stability index: 3.4 for the first, 3.45 for the second.

First: AKAADSPTRNDLESGLGHFSMRVH
Second: AKAADSPTRNDLESGLGHFSRRVH
The protein stability index of the first is higher: 3.6 for the first, 2.98 for the second.

First: AKAADSPTRNDLESGLGHFSKRVH
Second: AKAADSPTRNDLESGLGHFSCRVH
The protein stability index of the first is lower: 3.5 for the first, 4.2 for the second.

First: AKAADSPTRNDLESGLGHFSIRVH
Second: AKAADSPTRNDLESGLGHFSNRVH
The protein stability index of the first is lower: 2.33 for the first, 4.3 for the second.

Going from AKAADSPTRNDLESGLGHFSERVH to AKAADSPTRNDLESGLGHFSPRVH, the protein stability index falls from 4.38 to 4.25.

Compared with AKAADSPTRNDLESGLGHFSDRVH, AKAADSPTRNDLESGLGHFSSRVH is lower in protein stability index: 5.01 for the first, 4.39 for the second.

Compared with AKAADSPTRNDLESGLGHFSQRVH, AKAADSPTRNDLESGLGHFSHRVH is lower in protein stability index: 4 for the first, 3.55 for the second.

Going from AKAADSPTRNDLESGLGHFSYRVH to AKAADSPTRNDLESGLGHFSFRVH, the protein stability index falls from 3.06 to 2.38.

Compared with AKAADSPTRNDLESGLGHFSARVH, AKAADSPTRNDLESGLGHFSTRVH is lower in protein stability index: 4.25 for the first, 4.08 for the second.

First: AKAADSPTRNDLESGLGHFSGRVH
Second: AKAADSPTRNDLESGLGHFSVRVH
The protein stability index of the first is higher: 4.79 for the first, 3.84 for the second.

First: AKAADSPTRNDLESGLGHFSLRVD
Second: AKAADSPTRNDLESGLGHFSLRVY
The protein stability index of the first is higher: 3.63 for the first, 1.58 for the second.

First: AKAADSPTRNDLESGLGHFSLRVK
Second: AKAADSPTRNDLESGLGHFSLRVQ
The protein stability index of the first is higher: 3.92 for the first, 3.53 for the second.

Going from AKAADSPTRNDLESGLGHFSLRVA to AKAADSPTRNDLESGLGHFSLRVT, the protein stability index rises from 2.92 to 3.41.

First: AKAADSPTRNDLESGLGHFSLRVN
Second: AKAADSPTRNDLESGLGHFSLRVS
The protein stability index of the first is higher: 4.15 for the first, 3.6 for the second.

Going from AKAADSPTRNDLESGLGHFSLRVG to AKAADSPTRNDLESGLGHFSLRVL, the protein stability index falls from 2.64 to 2.59.

Going from AKAADSPTRNDLESGLGHFSLRVW to AKAADSPTRNDLESGLGHFSLRVR, the protein stability index rises from 2.09 to 2.79.

Compared with AKAADSPTRNDLESGLGHFSLRVV, AKAADSPTRNDLESGLGHFSLRVM is lower in protein stability index: 2.61 for the first, 2.25 for the second.

First: AKAADSPTRNDLESGLGHFSLRVE
Second: AKAADSPTRNDLESGLGHFSLRVP
The protein stability index of the first is higher: 3.75 for the first, 3.73 for the second.

First: AKAADSPTRNDLESGLGHFSLRVF
Second: AKAADSPTRNDLESGLGHFSLRVI
The protein stability index of the first is higher: 2.32 for the first, 1.9 for the second.

Compared with AKAADSPTRNDLESGLGHFSLRVC, AKAADSPTRNDLESGLGHFSLGVH is higher in protein stability index: 2.49 for the first, 3.5 for the second.

Compared with AKAADSPTRNDLESGLGHFSLEVH, AKAADSPTRNDLESGLGHFSLKVH is lower in protein stability index: 3.92 for the first, 3.59 for the second.

First: AKAADSPTRNDLESGLGHFSLIVH
Second: AKAADSPTRNDLESGLGHFSLTVH
The protein stability index of the first is lower: 2.61 for the first, 2.8 for the second.

Compared with AKAADSPTRNDLESGLGHFSLYVH, AKAADSPTRNDLESGLGHFSLFVH is higher in protein stability index: 2.31 for the first, 2.43 for the second.

Going from AKAADSPTRNDLESGLGHFSLMVH to AKAADSPTRNDLESGLGHFSLAVH, the protein stability index rises from 2.61 to 3.47.

Compared with AKAADSPTRNDLESGLGHFSLPVH, AKAADSPTRNDLESGLGHFSLVVH is lower in protein stability index: 4 for the first, 2.71 for the second.

First: AKAADSPTRNDLESGLGHFSLNVH
Second: AKAADSPTRNDLESGLGHFSLDVH
The protein stability index of the first is lower: 3.62 for the first, 4.28 for the second.

First: AKAADSPTRNDLESGLGHFSLCVH
Second: AKAADSPTRNDLESGLGHFSLWVH
The protein stability index of the first is lower: 2.27 for the first, 2.4 for the second.

First: AKAADSPTRNDLESGLGHFSLHVH
Second: AKAADSPTRNDLESGLGHFSLLVH
The protein stability index of the first is higher: 3.25 for the first, 2.7 for the second.

Going from AKAADSPTRNDLESGLGHFSLQVH to AKAADSPTRNDLESGLGHFSLSVH, the protein stability index rises from 2.73 to 2.98.

Going from AKAADSPTRNDLESGLGHYSLRVH to AKAADSPTRNDLESGLGHWSLRVH, the protein stability index falls from 3.16 to 2.76.

Compared with AKAADSPTRNDLESGLGHHSLRVH, AKAADSPTRNDLESGLGHRSLRVH is higher in protein stability index: 3.67 for the first, 4.28 for the second.

First: AKAADSPTRNDLESGLGHSSLRVH
Second: AKAADSPTRNDLESGLGHMSLRVH
The protein stability index of the first is higher: 4.61 for the first, 3.69 for the second.

Going from AKAADSPTRNDLESGLGHLSLRVH to AKAADSPTRNDLESGLGHPSLRVH, the protein stability index rises from 3.31 to 4.33.

First: AKAADSPTRNDLESGLGHTSLRVH
Second: AKAADSPTRNDLESGLGHQSLRVH
The protein stability index of the first is higher: 4.66 for the first, 4.33 for the second.

Compared with AKAADSPTRNDLESGLGHNSLRVH, AKAADSPTRNDLESGLGHKSLRVH is higher in protein stability index: 4.24 for the first, 4.63 for the second.

First: AKAADSPTRNDLESGLGHGSLRVH
Second: AKAADSPTRNDLESGLGHVSLRVH
The protein stability index of the first is higher: 4.32 for the first, 3.58 for the second.

Going from AKAADSPTRNDLESGLGHFSLRYH to AKAADSPTRNDLESGLGHFSLRPH, the protein stability index rises from 2.61 to 4.13.

First: AKAADSPTRNDLESGLGHFSLRMH
Second: AKAADSPTRNDLESGLGHFSLRWH
The protein stability index of the first is higher: 3.29 for the first, 2.14 for the second.

First: AKAADSPTRNDLESGLGHFSLREH
Second: AKAADSPTRNDLESGLGHFSLRAH
The protein stability index of the first is higher: 4.69 for the first, 3.67 for the second.

First: AKAADSPTRNDLESGLGHFSLRNH
Second: AKAADSPTRNDLESGLGHFSLRQH
The protein stability index of the first is lower: 3.43 for the first, 3.58 for the second.

Going from AKAADSPTRNDLESGLGHFSLRGH to AKAADSPTRNDLESGLGHFSLRKH, the protein stability index rises from 4.16 to 4.43.

Going from AKAADSPTRNDLESGLGHFSLRLH to AKAADSPTRNDLESGLGHFSLRHH, the protein stability index rises from 2.88 to 3.55.

Compared with AKAADSPTRNDLESGLGHFSLRDH, AKAADSPTRNDLESGLGHFSLRCH is lower in protein stability index: 4.68 for the first, 3.45 for the second.

Going from AKAADSPTRNDLESGLGHFSLRIH to AKAADSPTRNDLESGLGHFSLRTH, the protein stability index rises from 2.42 to 3.49.

First: AKAADSPTRNDLESGLGHFSLRFH
Second: AKAADSPTRNDLESGLGHFSLRSH
The protein stability index of the first is lower: 2.14 for the first, 3.48 for the second.

Work on AKAADSPTRNDLESGLGHFSLRRH yielded a protein stability index of 4.03.
